Experimental findings from the NTF2 design screens of Basanta et al. (2020) are described below.

This series can be described thus: protease stability score; higher = more stable; yeast display proteolysis, trypsin and chymotrypsin.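 Further: relative to predicted unfolded state with 0 unfolded-like and 1 meaning tenfold more protease.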
Take “DEEEKYVEDIAREFLHAMRTGDEEWNKELADPHVRMHLHQGDYILNLHGRDLFTRVIRYLVDQWRLEIRIENFDSIGNKIEVHGTIILKQGDKSIKRKSIIHIDVVNGRLKEVHIHLQ”: the protease stability score was 0.152.
In the case of “DEEENMAEWAIRLMKHVIETGNFEEFLRLFDPNTRMHVNGVESHGRERSSKVLKEWLEIMGVDHLKVRDEKFSVQGNKLHIHLDTRTEQGDKEIETHIEVISYKIDGRWRQKEIRFEVR”, the protease stability score was determined as 1.69.
Turning to “DEEEQAASHLEELIFRVIETGDWRNFYKMMDPDVRLDFNGQEYHGRENVTEAWHNSFHDLGIKHIELRTKNSQGDFLHLNFIVRYNGREFNVHFNWHVIDGRMKLIDIRVEHI”, the protease stability score was 0.585.
“DEEEQEFREFMKHVLEMIRTGDEDQWRKLMDPDARLIVDGKDIHGREEVVRLWSEITRHARFRDRKIHSMEIQGDKVRVDGRVLGEFNGVDRQTESHIIFHKINGRWKIHQEFIV” registered a protease stability score of 0.882.
Turning to “DEEEQHAERVTRRWSRAVLTGNEEELSRLMDPHVRVHINGRDLHGREVAVEQRREQHKELGIDHIEVRLRHLRIQGDKLEVDSRVIIRVNGQEITIDTLLIWRKIDGRWVLHSVHEH”, the protease stability score is 0.348.
With “DEEEQHLKKFLKYLKKAIETGDWHKITEMADPNTRLNINGVDNIGWEIISHILMHELEELGLEQIHVHFEHERIQGDKVKLEIHLHIGDKVEHAEMYILKFDGRWRIKRLVRG”, the protease stability score turned out to be 1.93.
Under “DEEEQHSRELAEIYFEIWETGDFHTHKRMMDPNAKLDYNGQTIHGREHIVEYLRHLWERVKGVRFHLDSVHLQGDWLHIRGTLQVDGQHHKVDIHVQIVDGVLHEEHIRVR” stands 1.53; under “DEEEQLFHEAHDKFIKIMETGDWKDFHRNFDPDAKIEVGDKDKHGREEATEMLKFILDLLGVDHVLVKRLRIYGNKIESDVVFNVNGVEQRFHLISVKINGKWRTHKIVLR”, 1.23.
“DEEEQLSKIALRHFVESLETGDEHLLHRLIDPHARDIVDGVEIHGRDRMVENLIHMIERFKNVRLEIKDIKVINGRVHVEGRLEVDGKKLTMNLHFQKFDGRWWVRSVERH” came in with a protease stability score of 1.52.
“DEEEQQVEEVLRNMLRDFYTGDWKRLMKLADPHVQLDINGQLHHGREEAARFLIEWWEILGFKHSRLRHIDIQGEKLHIHGDKRVNGRTFELELIIIIINGRIRSEEIRVI” registered a protease stability score of 0.691.
“DEEEQRIEEMLKKWLEAMETGDEDLEKQLADPNVRFHIGDKEHVGREELSQVKKRLGIKVMILHDERVDRQGDWIVMHLDIILEFDGRRFRVRFNLFVEKIDGRWLVKKVEIHLR” registered a protease stability score of 0.936.
With “DEEEQSERIALELLDKSINTGDERVWKEMFDPRVIMDINGVKLIGREDYRRWRERFDHEENRDFKIHHHEVQGNKVHLDVEIDLTLNFDGKRHRHIFRTEVDVIKFDGKWHIRSLIVK”, the protease stability score amounted to 1.18.
Under “DEEERAAEEFLRWISKNSRTGDEESFNHLADPNTRVIIGDKVLHGREEWKKFLEEIRIEEIELKDFRIFDGKIRLDVIHTGKVNGRRHEVQVQMIVIKVNGRWIMHSVKFD” stands 1.09; under “DEEERAARFVLELIIRTFDTGDEHTIHELLDPHVRLWVGDKTFHGREQITHLIQRHLEELGFDHVHVHHRTIDVQGEKIELHGELELRQGDKRDTRTIKIIVQKVDGRWRITIFEIE”, 1.48; under “DEEERALIVLLLLFEESMRTGDPRLIKELMDPHMRLRFENRHYHGRDEFMEWFKQVDHIFIDRVNIRDVRLIGEWVRIDVEILGTHEQGDKQFEFRRRTHLVVRKVDGRWIMHHVEIR”, 1.64.
“DEEERAMEHMVRHLVDDIHTGDWRSLYRFLDPDVRLHVGDKRFHGRDTIVRLLLELLQTWGIDRIHSEVKHVHLQGEKIEAHTKDKYGDFEFSVLVDIFKIDGKWVIERREIS” yielded a protease stability score of 1.08.
Consider “DEEERDAEEVFRKFMRDVFTGNWDHIHEMFDPHARSSIQVDGRHIELHGRDELTRIFIWLGVDHIELKHVHIQGEKVISIGIVRYNGKHTHLEVYLRKVDGRWIIHSVHVRIR”, for which the protease stability score was determined as 1.67.
“DEEERDAIHAFRDFVKNFITGNEDRIDELADPHMRSDINGVSIHGWEEFSRHTLREMKRFDHIEFRIRDIKIQGNYIHIDTEVILRVNGRTFSTRMVLIWLKVNGKWFLHEIDVR” came in with a protease stability score of 1.35.
